Experimental data: doi:10.1101/2022.02.25.481886

Target: RFP-VAP27-1 (Arabidopsis) (UniProt Q8VZ95)
Experiment: FRET or BRET

Chain of UniProt Q8VZ95 (Q8VZ95 whole entry): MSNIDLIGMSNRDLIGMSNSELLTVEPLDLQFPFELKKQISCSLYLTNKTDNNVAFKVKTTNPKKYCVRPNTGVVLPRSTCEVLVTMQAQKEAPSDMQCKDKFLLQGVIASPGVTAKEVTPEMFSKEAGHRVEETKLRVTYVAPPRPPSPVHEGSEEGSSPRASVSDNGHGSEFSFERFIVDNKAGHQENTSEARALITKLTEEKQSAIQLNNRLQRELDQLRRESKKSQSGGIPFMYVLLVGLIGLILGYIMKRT

fluorescence lifetime of the GFP donor with the RFP acceptor: 2.21 ns
Substance: GFP-TraB1b (natural protein)
